According to US20230270832A1, “MAGEA1 IMMUNOGENIC PEPTIDES, BINDING PROTEINS RECOGNIZING MAGEA1 IMMUNOGENIC PEPTIDES, AND USES THEREOF” (TScan Therapeutics, Inc., priority 2021, published 2023):

Experiments:
[1] = target: T1, epitope from MAGEA1 presented by HLA C*07:02 (Homo sapiens, UniProt P10321+P43355, DEL298-309); experiment: Identification of MAGEA1-reactive TCRs from pool of TCR-transduced T cells (CD137/CD69 sorting, TCR sequencing); assay type: cell-based; details: target cells transduced with MAGEA1 90-mer
T1 construct: an individual 90-amino acid fragments representing the top-scoring MAGEA1 tile from the screen; expressed in transfected cells; host or cells: MHC monoallelic C*07:02 HEK293T cells, lentivirally transduced with the MAGEA1 90-mer
From the text: Ten orphan TCRs from this patient were pooled together to identify their cognate antigens using the genome-wide TargetScan technology. This screen identified MAGEA1 as a novel target. […] Note that the term “TCR32-39” may also be known as “TCR39” and the term “TCR32-41” may also be known as “TCR41”.
To identify the corresponding TCR from the pool of TCR-transduced T cells, Ml-IC monoallelic C*07:02 HEK293T cells engineered to express the MAGEA1 90mer were co-cultured with the pool of T cells at an E:T ratio of 1:1 for 16-24 hours. The T cells were mixed, collected by pipetting, and labeled with a CD137 microbead kit (Miltenyi) following the manufacturer's instructions. In brief, T cells were first stained with PE-labeled anti-CD137 and AF647-labeled anti-CD69 (BioLegend), washed, and then labeled with anti-PE microbeads. Labeled cells were enriched with an autoMACS® Pro separator (Miltenyi) and CD137 and CD69 double-positive cells were sorted on a MoFlo® Astrios™ Cell Sorter (Beckman Coulter). Genomic DNA was extracted from the sorted cells and the TCR expression cassette was PCR amplified and prepared for next generation sequencing (NGS).

[2] = test system: cancer cells that express MAGEA1; experiment: T cell recognition assay on cancer cell lines; assay type: cell-based, human; details: IFNγ release, CD137/CD69 double-positive staining
Description: To detect reactivity to cancer cell lines, wild-type cancer cell lines were seeded in a 96-well flat bottom plate and rested overnight at 37° C. in 5% CO2. On the following day, T cells were thawed, washed in complete RPMI-1640 medium, and added to the wells for an effector to target (E:T) ratio of 1:1 for INFγ measurement or 1:4 for flow cytometry analysis of activation-induced markers. The co-culture was incubated overnight. Cells were then harvested by pipetting, transferred to V-bottom 96-well plates, and centrifuged at 2,000 rpm for 2 minutes. The supernatant was collected for IFNγ measurement using a human IFNγ 3rd generation single-plex assay (Protein Simple). For flow cytometry analysis (Cytoflex S™ instrument, Beckman Coulter), cell pellets were washed with FACS buffer (PBS, 0.5% BSA, 2 mM EDTA) and stained for activation-induced markers, including PE-conjugated anti-CD137 (Miltenyi), AF647-conjugated anti-CD69 (Biolegend), and BV421-conjugated anti-CD8 (BioLegend).
(§1) Cancer cell lines were purchased from ATCC (Manassas, Vα.) and HEK293T cells were originally from Takara Bio (Shiga, Japan). All media were supplemented with […], except U266B1 which required 15% FBS, and 1% penicillin and incubated at 37° C. in 5% CO2. A101D (high MAGE-A1 expresing cells; TPM: 359), A2058 (medium MAGE-A1 expresing cells; TPM: 128), HS294T, and HEK293T cells were maintained in complete DMEM. SK-MEL-5 was cultured in complete EMEM, whereas U266B1, NCIH1437 and 786-0 required complete RPMI. Untransduced cancer cells were maintained in preparation for the T cell recognition assay, and 10^6 cells of each cell line were introduced with Incucyte® NucLight™ Red lentivirus reagent (Sartorius, Gottingen, Germany) Positively-labeled cells were selected using 1.5 ug/mL of puromycin over 72 hours.

[3] = test system: cell lines with low to zero MAGEA1 expression; assay type: cell-based, human
Description: as §1
Cancer cells selected for Incucyte® NucLight™ analysis were seeded into 96-well flat bottom plates (Corning, Flintshire, UK) at 10^4 cells. On the same day, T cells were thawed, washed in complete RPMI-1640, and allowed to rest overnight in medium with 50 U/mL IL-2 (PeproTech), 5 ng/mL IL-7, and 5 ng/mL IL-15 (R&D Systems). All cells were rested overnight at 37° C. in 5% CO2. […] Imaging utilized a 4x objective lens and data were analyzed using the Incucyte® Basic Software. […]

[4] = test system: LAMB4-IR peptide; experiment: Peptide validation of off-target with dilutions of cross-reactive peptide; assay type: cell-based, human; details: LAMB4-IR peptide below 2,000 ng/mL
Description: MHC-Flurry (O'Donnell et al. (2020) Cell Systems 42-48.e7) was used to predict peptides from LAMB4-IR with high-affinity binding to C*07:02. Predicted high-binding peptides were synthesized (GenScript). Monoallelic C*07:02 HEK293T reporter cells were pulsed with serial dilutions 0-20,000 ng/ml of the top peptide candidate for 1 hour and then co-cultured with TCR-transduced T cells (HN-32-41) at an E:T ratio of ˜2:1. After 4 hours, the cultures were harvested by pipetting and fluorescence of the reporter was detected using a CytoFLE.X™ S instrument (Beckman Coulter).

- recognition of MAGEA1 epitope / identification as MAGEA1-reactive TCR ([1]; listed as TCR 41): hits
B1: TCR 32-41: T cell receptor recognizing MAGEA1 epitope presented by HLA-C*07:02; alpha TRAV27/TRAJ52, beta TRBV12-4/TRBJ1-4; wild type, HM and MGTM sequences listed (protein)
TCR alpha: QLLEQSPQFLSIQEGENLTVYCNSSSVFSSLQWYRQEPGEGPVLLVTVVTGGEVKKLKRLTFQFGDARKDSSLHITAAQPGDTGLYLCAGDESISYGKLTFGQGTILTVHPNIQNPEPAVYQLKDPRSQDSTLCLFTDFDSQINVPKTMESGTFITDKCVLDMKAMDSKSNGAIAWSNQTSFTCQDIFKETNATYPSSDVPCDATLTEKSFETDMNLNFQNLLVMVLRILLLKVAGFNLLMTLRLWSS
TCR beta: DAGVIQSPRHEVTEMGQEVTLRCKPISGHDYLFWYRQTMMRGLELLIYFNNNVPIDDSGMPEDRFSAKMPNASFSTLKIQPSEPRDSAVYFCASSFLGWNEKLFFGSGTQLSVLEDLRNVTPPKVSLFEPSKAEIANKQKATLVCLARGFFPDHVELSWWVNGKEVHSGVCTDPQAYKESNYSYCLSSRLRVSATFWHNPRNHFRCQVQFHGLSEEDKWPEGSPKPVTQNISAEAWGRADCGITSASYQQGVLSATILYEILLGKATLYAVLVSTLVVMAMVKRKNS
- recognition of MAGEA1 epitope / identification as MAGEA1-reactive TCR ([1]; listed as HN-32-41): recognizing the same novel epitope from MAGEA1 presented by HLA C*07:02
- recognition of cancer cells [2]: recognize cancer cells that express MAGEA1
- recognition of cancer cells ([2]; listed as TCR 41): recognize
- cytotoxic activity (killing) on cell lines with low to zero MAGEA1 [3]: does not kill cell lines with low to zero MAGEA1 expression
- reactivity to cross-reactive off-target peptide [4]: poor reactivity
